Assay results reported in patent publication US20180094075A1 (Pfizer, published 2018).

What was measured:
[1] = molecular target: human PTK7 expressed on cells (cancer cell lines with endogenous PTK7; HEK293T-PTK7 over-expressing cells) (human) (UniProt Q13308); assay: flow cytometry, H661 cells, 10 µg/ml Ab
[2] = molecular target: human PTK7 expressed on cells (cancer cell lines with endogenous PTK7; HEK293T-PTK7 over-expressing cells) (human) (UniProt Q13308); assay: flow cytometry, RL cells, 10 µg/ml Ab
[3] = molecular target: human PTK7 expressed on cells (cancer cell lines with endogenous PTK7; HEK293T-PTK7 over-expressing cells) (human) (UniProt Q13308); assay: flow cytometry, NB4 cells, 10 µg/ml Ab
[4] = molecular target: human PTK7 expressed on cells (cancer cell lines with endogenous PTK7; HEK293T-PTK7 over-expressing cells) (human) (UniProt Q13308); assay: flow cytometry, MDAMB436 cells, 10 µg/ml Ab
[5] = molecular target: human PTK7 expressed on cells (cancer cell lines with endogenous PTK7; HEK293T-PTK7 over-expressing cells) (human) (UniProt Q13308); assay: flow cytometry, Hs578T cells, 10 µg/ml Ab
[6] = molecular target: human PTK7 expressed on cells (cancer cell lines with endogenous PTK7; HEK293T-PTK7 over-expressing cells) (human) (UniProt Q13308); assay: flow cytometry, U937 cells, 10 µg/ml Ab
[7] = molecular target: human PTK7 expressed on cells (cancer cell lines with endogenous PTK7; HEK293T-PTK7 over-expressing cells) (human) (UniProt Q13308); assay: flow cytometry, RPMI8226 cells, 10 µg/ml Ab
[8] = molecular target: human PTK7 expressed on cells (cancer cell lines with endogenous PTK7; HEK293T-PTK7 over-expressing cells) (human) (UniProt Q13308); assay: flow cytometry, BT-549 cells, 10 µg/ml Ab
[9] = molecular target: human PTK7 expressed on cells (cancer cell lines with endogenous PTK7; HEK293T-PTK7 over-expressing cells) (human) (UniProt Q13308); assay: flow cytometry, THP-1 cells, 10 µg/ml Ab
[10] = molecular target: human PTK7 expressed on cells (cancer cell lines with endogenous PTK7; HEK293T-PTK7 over-expressing cells) (human) (UniProt Q13308); assay: flow cytometry, DMS79 cells, 10 µg/ml Ab
[11] = molecular target: human PTK7 expressed on cells (cancer cell lines with endogenous PTK7; HEK293T-PTK7 over-expressing cells) (human) (UniProt Q13308); assay: flow cytometry, TF1 cells, 10 µg/ml Ab
[12] = molecular target: human PTK7 expressed on cells (cancer cell lines with endogenous PTK7; HEK293T-PTK7 over-expressing cells) (human) (UniProt Q13308); assay: flow cytometry, HCT116 cells, 10 µg/ml Ab
[13] = molecular target: human PTK7 expressed on cells (cancer cell lines with endogenous PTK7; HEK293T-PTK7 over-expressing cells) (human) (UniProt Q13308); assay: flow cytometry, DU4475 cells, 10 µg/ml Ab
[14] = molecular target: human PTK7 expressed on cells (cancer cell lines with endogenous PTK7; HEK293T-PTK7 over-expressing cells) (human) (UniProt Q13308); assay: flow cytometry, H520 cells, 10 µg/ml Ab
[15] = molecular target: human PTK7 expressed on cells (cancer cell lines with endogenous PTK7; HEK293T-PTK7 over-expressing cells) (human) (UniProt Q13308); assay: flow cytometry, MiaPaca cells, 10 µg/ml Ab
[16] = molecular target: human PTK7 expressed on cells (cancer cell lines with endogenous PTK7; HEK293T-PTK7 over-expressing cells) (human) (UniProt Q13308); assay: flow cytometry, BxPC3 cells, 10 µg/ml Ab
[17] = molecular target: human PTK7 expressed on cells (cancer cell lines with endogenous PTK7; HEK293T-PTK7 over-expressing cells) (human) (UniProt Q13308); assay: flow cytometry, TF1a cells, 10 µg/ml Ab
[18] = molecular target: human PTK7 expressed on cells (cancer cell lines with endogenous PTK7; HEK293T-PTK7 over-expressing cells) (human) (UniProt Q13308); assay: flow cytometry, HCC38 cells, 10 µg/ml Ab
[19] = molecular target: human PTK7 expressed on cells (cancer cell lines with endogenous PTK7; HEK293T-PTK7 over-expressing cells) (human) (UniProt Q13308); assay: flow cytometry, H596 cells, 10 µg/ml Ab
[20] = molecular target: human PTK7 expressed on cells (cancer cell lines with endogenous PTK7; HEK293T-PTK7 over-expressing cells) (human) (UniProt Q13308); assay: flow cytometry, HCC1937 cells, 10 µg/ml Ab

Sequence of human PTK7 expressed on cells (cancer cell lines with endogenous PTK7; HEK293T-PTK7 over-expressing cells) (human) (Q13308 31-1070 L93P limits assumed): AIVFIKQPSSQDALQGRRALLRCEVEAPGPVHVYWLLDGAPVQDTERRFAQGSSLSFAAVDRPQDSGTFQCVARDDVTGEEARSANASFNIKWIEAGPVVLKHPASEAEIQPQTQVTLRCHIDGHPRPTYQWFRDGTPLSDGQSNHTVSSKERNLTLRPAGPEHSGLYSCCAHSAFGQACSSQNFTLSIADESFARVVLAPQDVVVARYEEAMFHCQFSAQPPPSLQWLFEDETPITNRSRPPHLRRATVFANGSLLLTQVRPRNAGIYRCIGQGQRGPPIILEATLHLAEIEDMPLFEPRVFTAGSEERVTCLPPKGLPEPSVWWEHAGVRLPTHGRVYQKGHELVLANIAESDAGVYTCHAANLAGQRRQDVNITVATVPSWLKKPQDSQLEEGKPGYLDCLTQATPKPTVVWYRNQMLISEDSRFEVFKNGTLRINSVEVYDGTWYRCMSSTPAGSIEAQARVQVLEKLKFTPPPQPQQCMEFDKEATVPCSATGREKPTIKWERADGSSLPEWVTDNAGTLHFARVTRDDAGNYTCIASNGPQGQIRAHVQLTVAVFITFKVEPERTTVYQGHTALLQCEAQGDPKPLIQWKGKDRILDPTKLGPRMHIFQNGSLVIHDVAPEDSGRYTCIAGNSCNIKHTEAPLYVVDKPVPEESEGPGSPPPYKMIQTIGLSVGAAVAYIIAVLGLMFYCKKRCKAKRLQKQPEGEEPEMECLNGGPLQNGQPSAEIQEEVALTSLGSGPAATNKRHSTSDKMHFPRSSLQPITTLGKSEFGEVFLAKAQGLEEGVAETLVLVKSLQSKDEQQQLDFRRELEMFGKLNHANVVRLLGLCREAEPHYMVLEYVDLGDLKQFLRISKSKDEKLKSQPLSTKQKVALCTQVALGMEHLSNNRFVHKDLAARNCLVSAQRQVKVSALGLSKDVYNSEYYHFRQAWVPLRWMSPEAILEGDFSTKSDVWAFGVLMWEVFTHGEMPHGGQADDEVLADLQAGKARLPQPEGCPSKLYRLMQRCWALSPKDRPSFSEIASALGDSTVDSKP

Mean Fluorescent Intensity [1]: 3.8 | Mean Fluorescent Intensity [2]: 29.8 | Mean Fluorescent Intensity [3]: 6.8 | Mean Fluorescent Intensity [4]: 3.5 | Mean Fluorescent Intensity [5]: 2.7 | Mean Fluorescent Intensity [6]: 5 | Mean Fluorescent Intensity [7]: 8.3 | Mean Fluorescent Intensity [8]: 3.6 | Mean Fluorescent Intensity [9]: 4 | Mean Fluorescent Intensity [10]: 8.5 | Mean Fluorescent Intensity [11]: 5.9 | Mean Fluorescent Intensity [12]: 17.8 | Mean Fluorescent Intensity [13]: 3.8 | Mean Fluorescent Intensity [14]: 4.8 | Mean Fluorescent Intensity [15]: 3.5 | Mean Fluorescent Intensity [16]: 4.6 | Mean Fluorescent Intensity [17]: 6.2 | Mean Fluorescent Intensity [18]: 7.2 | Mean Fluorescent Intensity [19]: 21.4 | Mean Fluorescent Intensity [20]: 7.8
Substance: Negative Control Ab (Table 8) (antibody)
